Our source for the self-cleavage values is the RNAGym collection of RNA variant scans (doi:10.1093/nar/gkz1192).

The chains are these.
B1: CPEB3 Ribozyme (parent)
chain: UAACAGGGGGCCACAGCAGAAGCGUUCACGUCGCAGCCCCUGUCAGAUUCUGGUGAAUCUGCGAAUUCUGCUGUAUAUCUC

The variants in this data set derive from B1. Kind of data set: self-cleavage, relative activity (ratio to wild type); higher = more cleavage; in vitro, sequencing. The essentials: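 Libraries of CPEB3 self-cleaving ribozyme mutants came from rounds of error-prone PCR and carried barcodes, which DNA sequencing matched to variants. In vitro transcription used T7 RNA polymerase at 37°C for 5 hours, with a further 15 min in DNase I before EDTA stopped the reaction; the ribozymes cleaved during both steps. The RNA was reverse transcribed with template switching and sequenced on Illumina. Relative activity is the cleaved/total read fraction of a variant divided by that of the unmutated ribozyme, averaged over three batches with at least 5 reads.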
For the variant UAACAGGGGGCCACAGCAGAAGCGUUCACGUCGCAGACCCUGUCAGAUUCUGGUGAAUCUGCGAAUUCUGCUGUGUAUCUC, the self-cleavage was 0.19. The same measure for UAACAGGGGGCCACAGCAGAAGCGUUCACGUCGCAGACCCUGUCAGAUUCUGGUGAAUCUGCGAAUUCUGCUGUAUAACUC: 0.2; for UAACAGGGGGCCACAGCAGAAGCGUUCACGUCGCAGACCCUGUCAGAUUCUGGUGAAUCUGCGAAUUCUGCUGUAUACCUC: 0.35; for UAACAGGGGGCCACAGCAGAAGCGUUCACGUCGCAGGCCCUGUCAGAUUCUGGUGAAUCUGCGGAUUCUGCUGUAUAUCUC: 0.54. The same measure for UAACAGGGGGCCACAGCAGAAGCGUUCACGUCGCAGGCCCUGUCAGAUUCUGGUGAAUCUGCGUAUUCUGCUGUAUAUCUC: 0.22; for UAACAGGGGGCCACAGCAGAAGCGUUCACGUCGCAGACCCUGCCAGAUUCUGGUGAAUCUGCGAAUUCUGCUGUAUAUCUC: 0.43. Under UAACAGGGGGCCACAGCAGAAGCGUUCACGUCGCAGACCCUGACAGAUUCUGGUGAAUCUGCGAAUUCUGCUGUAUAUCUC stands 0.14; under UAACAGGGGGCCACAGCAGAAGCGUUCACGUCGCAGGCCCUGUCAGAUUCUGGUGAAUCUGCGAAUUCUGCUGUAUAUCAC, 1.18. On to UAACAGGGGGCCACAGCAGAAGCGUUCACGUCGCAGGCCCUGUCAGAUUCUGGUGAAUGUGCGAAUUCUGCUGUAUAUCUC, for which the self-cleavage was found to be 0.13. The same measure for UAACAGGGGGCCACAGCAGAAGCGUUCACGUCGCAGACCCCGUCAGAUUCUGGUGAAUCUGCGAAUUCUGCUGUAUAUCUC: 0.25; for UAACAGGGGGCCACAGCAGAAGCGUUCACGUCGCAGACCCAGUCAGAUUCUGGUGAAUCUGCGAAUUCUGCUGUAUAUCUC: 0.19. The same measure for UAACAGGGGGCCACAGCAGAAGCGUUCACGUCGCAGACCCUGUCAGAUUCUGGUGAAUCUGCGAAUUCUGCUGUAUGUCUC: 0.18; for UAACAGGGGGCCACAGCAGAAGCGUUCACGUCGCAGACCCUGUCAGAUUCUGGUGAAUCUGCGAAUUCUGCUGUAUUUCUC: 0.28; for UAACAGGGGGCCACAGCAGAAGCGUUCACGUCGCAGACCCUGUCAGAUUCUGGUGAGUCUGCGAAUUCUGCUGUAUAUCUC: 0.2.

Turning to UAACAGGGGGCCACAGCAGAAGCGUUCACGUCGCAGACACUGUCAGAUUCUGGUGAAUCUGCGAAUUCUGCUGUAUAUCUC, the self-cleavage was 0.29. The same measure for UAACAGGGGGCCACAGCAGAAGCGUUCACGUCGCAGGCCCUGUCGGAUUCUGGUGAAUCUGCGAAUUCUGCUGUAUAUCUC: 0.7. Turning to UAACAGGGGGCCACAGCAGAAGCGUUCACGUCGCAGGCCCUGUCUGAUUCUGGUGAAUCUGCGAAUUCUGCUGUAUAUCUC, the self-cleavage is 0.13. The same measure for UAACAGGGGGCCACAGCAGAAGCGUUCACGUCGCAGACCCUGUCAGAUUCUGGUGAAUCUGCGAAUUCUGUUGUAUAUCUC: 0.2; for UAACAGGGGGCCACAGCAGAAGCGUUCACGUCGCAGGCCCUGUCAGAUUCUGGUGAAUCUGCGAAUUCCGCUGUAUAUCUC: 0.23; for UAACAGGGGGCCACAGCAGAAGCGUUCACGUCGCAGGCCCUGUCAGAUUCUGGUGAAUCUGCGAAUUCAGCUGUAUAUCUC: 0.19. The same measure for UAACAGGGGGCCACAGCAGAAGCGUUCACGUCGCAGGCCCUGUAAGAUUCUGGUGAAUCUGCGAAUUCUGCUGUAUAUCUC: 0.39. Under UAACAGGGGGCCACAGCAGAAGCGUUCACGUCGCAGGCCCUGUCAGAUUCUGGUGAAUCUGCGAAUACUGCUGUAUAUCUC stands 0.48; under UAACAGGGGGCCACAGCAGAAGCGUUCACGUCGCAGACCCUGUCAGAUUCUUGUGAAUCUGCGAAUUCUGCUGUAUAUCUC, 0.35.

For the variant UAACAGGGGGCCACAGCAGAAGCGUUCACGUCGCAGGCCCUUUCAGAUUCUGGUGAAUCUGCGAAUUCUGCUGUAUAUCUC, the self-cleavage was found to be 0.29.

On to UAACAGGGGGCCACAGCAGAAGCGUUCACGUCGCAGACCCUGUCAGAUACUGGUGAAUCUGCGAAUUCUGCUGUAUAUCUC, for which the self-cleavage stood at 0.13. The same measure for UAACAGGGGGCCACAGCAGAAGCGUUCACGUCGCAGACCCUGUCAGAUCCUGGUGAAUCUGCGAAUUCUGCUGUAUAUCUC: 0.11; for UAACAGGGGGCCACAGCAGAAGCGUUCACGUCGCAGGCCCUGUCAGACUCUGGUGAAUCUGCGAAUUCUGCUGUAUAUCUC: 0.45.

With UAACAGGGGGCCACAGCAGAAGCGUUCACGUCGCAGACCCUGUCAGAUUCUGGUGAAUCUGCGAAUCCUGCUGUAUAUCUC, the self-cleavage was 0.13. The same measure for UAACAGGGGGCCACAGCAGAAGCGUUCACGUCGCAGACCCUGUCAGAUUCUGGUGAAUCUGCGAAUGCUGCUGUAUAUCUC: 0.17; for UAACAGGGGGCCACAGCAGAAGCGUUCACGUCGCAGACCCUGUCAGAUUCUGGUGAAUCUGCGAAUACUGCUGUAUAUCUC: 0.14; for UAACAGGGGGCCACAGCAGAAGCGUUCACGUCGCAGACCCUGUCAGAUUCUGGUGAAUCCGCGAAUUCUGCUGUAUAUCUC: 0.09.

Turning to UAACAGGGGGCCACAGCAGAAGCGUUCACGUCGCAGACCCUGUCAGAUUCUGGUGAAUCAGCGAAUUCUGCUGUAUAUCUC, the self-cleavage worked out at 0.14. Under UAACAGGGGGCCACAGCAGAAGCGUUCACGUCGCAGACCCUGUCAGAUUCUGGUGAAUCUGCGAAUUCUGCUGCAUAUCUC stands 0.17; under UAACAGGGGGCCACAGCAGAAGCGUUCACGUCGCAGACCCUGUCAGAUUCUGGUGAAUCUGCGAAUUCAGCUGUAUAUCUC, 0.12.

With UAACAGGGGGCCACAGCAGAAGCGUUCACGUCGCAGACCCUGUCAGAUUCUGGUGAAUCUGCGAUUUCUGCUGUAUAUCUC, the self-cleavage was found to be 0.36. UAACAGGGGGCCACAGCAGAAGCGUUCACGUCGCAGACCCUGUCAGAUUCUGGUGAAUCUGCGAGUUCUGCUGUAUAUCUC: the self-cleavage was 0.16. Under UAACAGGGGGCCACAGCAGAAGCGUUCACGUCGCAGACCCUGUCAGACUCUGGUGAAUCUGCGAAUUCUGCUGUAUAUCUC stands 0.41; under UAACAGGGGGCCACAGCAGAAGCGUUCACGUCGCAGACCCUGUCAGAAUCUGGUGAAUCUGCGAAUUCUGCUGUAUAUCUC, 0.12; under UAACAGGGGGCCACAGCAGAAGCGUUCACGUCGCAGACCCUGUCAGAUUCUGGUGAAUUUGCGAAUUCUGCUGUAUAUCUC, 0.24. As to UAACAGGGGGCCACAGCAGAAGCGUUCACGUCGCAGGCCCUGUCAGAUUCUGGUGAAUCUGCGAAUUCUGCUGUUUAUCUC, the self-cleavage was determined as 1.13. Under UAACAGGGGGCCACAGCAGAAGCGUUCACGUCGCAGGCCCUGUCAGAUUCUGGUGAAUCUGCGAAUUCUGCCGUAUAUCUC stands 1.14.

Turning to UAACAGGGGGCCACAGCAGAAGCGUUCACGUCGCAGGCCCUGUCAGAUUCUGGUGAAUCUGCGAAUUCUGCAGUAUAUCUC, the self-cleavage was determined as 0.92. The same measure for UAACAGGGGGCCACAGCAGAAGCGUUCACGUCGCAGGCCCUGUCAGAUUCUGGUGAAUCUGCGAAUUCUCCUGUAUAUCUC: 0.2; for UAACAGGGGGCCACAGCAGAAGCGUUCACGUCGCAGACCCUGUCAGAUUCUGGUGAAUCUGCGAAUUCUGCUCUAUAUCUC: 0.38.

Consider UAACAGGGGGCCACAGCAGAAGCGUUCACGUCGCAGGCCCUGUCAGAUUCUGGUGAAUCUGCGAAUUCUGCUGUAUACCUC, for which the self-cleavage was found to be 0.68. The same measure for UAACAGGGGGCCACAGCAGAAGCGUUCACGUCGCAGACCCUGUCAGAUUCUGGUGAAUCUGCGAAUUUUGCUGUAUAUCUC: 0.09; for UAACAGGGGGCCACAGCAGAAGCGUUCACGUCGCAGACCCUGUCAGAUUCCGGUGAAUCUGCGAAUUCUGCUGUAUAUCUC: 0.17. Under UAACAGGGGGCCACAGCAGAAGCGUUCACGUCGCAGACCCUGUCAGAUUCUGGUGAAUCUGCGAAUUCUGCUGUAUAUCUC stands 0.28. Consider UAACAGGGGGCCACAGCAGAAGCGUUCACGUCGCAGGCCCUGUCAGAUUCUGGUGAAUCUGCGAAUUCUGCUGUAUAUCUC, for which the self-cleavage amounted to 0.8. Under UAACAGGGGGCCACAGCAGAAGCGUUCACGUCGCAGGCCCUGUCAGAUUCUGGUGAAUCUGCGAAUUCUGCUGAAUAUCUC stands 1.13; under UAACAGGGGGCCACAGCAGAAGCGUUCACGUCGCAGGCCCUGUCAGAUUCUGGUGAAUCUGCGAAUUCUGCUGCAUAUCUC, 0.9; under UAACAGGGGGCCACAGCAGAAGCGUUCACGUCGCAGACCCUGUCAGAUUCUGGUGAAUCUGCGAAUUCUGCUGUACAUCUC, 0.35. The same measure for UAACAGGGGGCCACAGCAGAAGCGUUCACGUCGCAGACCCUGUCAGAUUCUGGGGAAUCUGCGAAUUCUGCUGUAUAUCUC: 0.2; for UAACAGGGGGCCACAGCAGAAGCGUUCACGUCGCAGGCCAUGUCAGAUUCUGGUGAAUCUGCGAAUUCUGCUGUAUAUCUC: 0.29; for UAACAGGGGGCCACAGCAGAAGCGUUCACGUCGCAGGCCCUGUCAGGUUCUGGUGAAUCUGCGAAUUCUGCUGUAUAUCUC: 0.58. Turning to UAACAGGGGGCCACAGCAGAAGCGUUCACGUCGCAGGCCCUGUCAGAUUCUGGUGAGUCUGCGAAUUCUGCUGUAUAUCUC, the self-cleavage stood at 0.44. As for UAACAGGGGGCCACAGCAGAAGCGUUCACGUCGCAGACCCUGUCAGAUUCUGGUGAAUCUGCGAAUUCUGCCGUAUAUCUC, the self-cleavage came to 0.33. Under UAACAGGGGGCCACAGCAGAAGCGUUCACGUCGCAGGCCCUGUCAGAUUCUGGUGAAUCUGGGAAUUCUGCUGUAUAUCUC stands 0.5; under UAACAGGGGGCCACAGCAGAAGCGUUCACGUCGCAGGCCCUGUCAGAUUCGGGUGAAUCUGCGAAUUCUGCUGUAUAUCUC, 0.78; under UAACAGGGGGCCACAGCAGAAGCGUUCACGUCGCAGAACCUGUCAGAUUCUGGUGAAUCUGCGAAUUCUGCUGUAUAUCUC, 0.27. Under UAACAGGGGGCCACAGCAGAAGCGUUCACGUCGCAGGCCCUGCCAGAUUCUGGUGAAUCUGCGAAUUCUGCUGUAUAUCUC stands 0.29; under UAACAGGGGGCCACAGCAGAAGCGUUCACGUCGCAGGCCCUGUCAGAUCCUGGUGAAUCUGCGAAUUCUGCUGUAUAUCUC, 0.38; under UAACAGGGGGCCACAGCAGAAGCGUUCACGUCGCAGACCCUGUCAGAUUCUGGUGAAUCUGCGGAUUCUGCUGUAUAUCUC, 0.25. The same measure for UAACAGGGGGCCACAGCAGAAGCGUUCACGUCGCAGGCCCUGUCAGAUUCUGGUGAAUCUGCGAAUUCUGCUGUAUUUCUC: 0.61; for UAACAGGGGGCCACAGCAGAAGCGUUCACGUCGCAGGCCCUGUCAGAUUCUGGUGAAUCUGCGAAUUAUGCUGUAUAUCUC: 0.18; for UAACAGGGGGCCACAGCAGAAGCGUUCACGUCGCAGACCCUGUCGGAUUCUGGUGAAUCUGCGAAUUCUGCUGUAUAUCUC: 0.26. As to UAACAGGGGGCCACAGCAGAAGCGUUCACGUCGCAGACCCUGUCCGAUUCUGGUGAAUCUGCGAAUUCUGCUGUAUAUCUC, the self-cleavage turned out to be 0.1.

As for UAACAGGGGGCCACAGCAGAAGCGUUCACGUCGCAGACCCUGUCUGAUUCUGGUGAAUCUGCGAAUUCUGCUGUAUAUCUC, the self-cleavage is 0.23.
